We go through 15 proteins from paper PMC4441004, “Functional Characterization and Categorization of Missense Mutations that Cause Methylmalonyl‐CoA Mutase (MUT) Deficiency” (Human Mutation, 2014).

The data set concerns the molecule itself. The data set is described as follows: SEC; Superdex 200 in the large-scale purification from E. coli; retention volumes of the mutants compared with wt MUT; data not shown.

Changes are numbered by the printed parent chain.

B1: MUT p.F573S (enzyme, human)
chain: LHQQQPLHPEWAALAKKQLKGKNPEDLIWHTPEGISIKPLYSKRDTMDLPEELPGVKPFTRGPYPTMYTFRPWTIRQYAGFSTVEESNKFYKDNIKAGQQGLSVAFDLATHRGYDSDNPRVRGDVGMAGVAIDTVEDTKILFDGIPLEKMSVSMTMNGAVIPVLANFIVTGEEQGVPKEKLTGTIQNDILKEFMVRNTYIFPPEPSMKIIADIFEYTAKHMPKFNSISISGYHMQEAGADAILELAYTLADGLEYSRTGLQAGLTIDEFAPRLSFFWGIGMNFYMEIAKMRAGRRLWAHLIEKMFQPKNSKSLLLRAHCQTSGWSLTEQDPYNNIVRTAIEAMAAVFGGTQSLHTNSFDEALGLPTVKSARIARNTQIIIQEESGIPKVADPWGGSYMMECLTNDVYDAALKLINEIEEMGGMAKAVAEGIPKLRIEECAARRQARIDSGSEVIVGVNKYQLEKEDAVEVLAIDNTSVRNRQIEKLKKIKSSRDQALAERCLAALTECAASGDGNILALAVDASRARCTVGEITDALKKVSGEHKANDRMVSGAYRQEFGESKEITSAIKRVHKFMEREGRRPRLLVAKMGQDGHDRGAKVIATGFADLGFDVDIGPLFQTPREVAQQAVDADVHAVGISTLAAGHKTLVPELIKELNSLGRPDILVMCGGVIPPQDYEFLFEVGVSNVFGPGTRIPKAAVQVLDDIEKCLEKKQQSV
notes: methylmalonyl-CoA mutase (MUT), human; construct 'hMUT' of Froese et al., 2010b with a patient missense mutation; Same construct limits as m1 (see its note); source: E. coli, purified (Ni-NTA, Superdex 200, TEV cleavage, reverse Ni-NTA)
The term stoichiometry N denotes the number of molecules, sites or subunits per partner or assembly. Consider B1, for which the “stoichiometry N” value is 2.

B2: MUT p.N366S (enzyme, human)
chain: B1 chain with N334S, S541F
notes: as for B1
Regarding B2, the “stoichiometry N” value was determined as 2.

B3: MUT p.T387I (enzyme, human)
chain: B1 chain with T355I, S541F
notes: as for B1
Turning to B3, the “stoichiometry N” value was determined as 2.

B4: MUT p.R694L (enzyme, human)
chain: B1 chain with S541F, R662L
notes: as for B1
Regarding B4, the “stoichiometry N” value was 2.

B5: MUT p.R694W (enzyme, human)
chain: B1 chain with S541F, R662W
notes: as for B1
As for B5, the “stoichiometry N” value is 2.

B6: MUT p.G426R (enzyme, human)
chain: B1 chain with G394R, S541F
notes: as for B1
With B6, the “stoichiometry N” value amounted to 2.

B7: MUT p.Q218H (enzyme, human)
chain: B1 chain with Q186H, S541F
notes: as for B1
As for B7, the “stoichiometry N” value was 2.

B8: MUT p.G717V (enzyme, human)
chain: B1 chain with S541F, G685V
notes: as for B1
Take B8: the “stoichiometry N” value came out at 2.

B9: MUT p.V633G (enzyme, human)
chain: B1 chain with S541F, V601G
notes: as for B1
Consider B9, for which the “stoichiometry N” value was 2.

B10: MUT p.P86L (enzyme, human)
chain: B1 chain with P54L, S541F
notes: as for B1
Turning to B10, the “stoichiometry N” value worked out at 2.

B11: MUT p.Y231N (enzyme, human)
chain: B1 chain with Y199N, S541F
notes: as for B1
As to B11, the “stoichiometry N” value turned out to be 2.

B12: MUT p.Y100C (enzyme, human)
chain: B1 chain with Y68C, S541F
notes: as for B1
Take B12: the “stoichiometry N” value stood at 2.

B13: MUT p.M700K (enzyme, human)
chain: B1 chain with S541F, M668K
notes: as for B1
Consider B13, for which the “stoichiometry N” value was 2.

B14: MUT p.R369H (enzyme, human)
chain: B1 chain with R337H, S541F
notes: as for B1
Regarding B14, the “stoichiometry N” value was 2.

B15: MUT p.G648D (enzyme, human)
chain: B1 chain with S541F, G616D
notes: as for B1
Consider B15, for which the “stoichiometry N” value worked out at 2.
